From patent US20180016354A1 (Merck KGaA, published 2018) come the findings set out here.

Positions count from the first letter of the chain named.

Assay [1] addresses T1, CD16a receptor (FcγIIIa) (UniProt P08637 17-254, limits assumed).
T1 construct: whole, on cells
The experiment in a line: CD16a HTRF cellular binding assay, competition with labeled human IgG. On the procedure: FIG. 14: Binding of antibodies to CD16a receptor. Binding was measured using CD16a HTRF cellular binding assay (CisBio). Measurement was performed in duplicates.

Assay [2] concerns the target T2, EGFR (on EGFR-expressing A431 cells) (UniProt P00533 25-1210, limits assumed).
T2 construct: whole, on cells; A431 is a human cell line; also called EGFR-positive cells; EGFR-overexpressing A431 cells
As to the kind of experiment: flow cytometry on A431 cells. For orientation: A flow cytometer gives signals particle by particle.

Assay [3] addresses T2, EGFR (on EGFR-expressing A431 cells). The experiment in a line: flow cytometry on EGFR-positive A431 cells.
The target in assay [4] is T1, CD16a receptor (FcγIIIa). As to the kind of experiment: cell-based or functional assay.
Assay [5] deals with T2, EGFR (on EGFR-expressing A431 cells). As to the kind of experiment: cell-based or functional assay.

T1 sequence (P08637 17-254 limits assumed): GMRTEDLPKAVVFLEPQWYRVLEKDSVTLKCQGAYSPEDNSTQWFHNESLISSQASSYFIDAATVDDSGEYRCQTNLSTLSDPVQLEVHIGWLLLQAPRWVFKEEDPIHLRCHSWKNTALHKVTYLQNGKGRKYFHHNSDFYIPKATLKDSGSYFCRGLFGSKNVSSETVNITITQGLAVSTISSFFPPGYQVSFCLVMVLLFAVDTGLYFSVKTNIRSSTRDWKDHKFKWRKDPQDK

B1: One-armed anti-CD16 with the unengineered 3G8 Fab fused to the SEED AG heavy chain (antibody)
heavy: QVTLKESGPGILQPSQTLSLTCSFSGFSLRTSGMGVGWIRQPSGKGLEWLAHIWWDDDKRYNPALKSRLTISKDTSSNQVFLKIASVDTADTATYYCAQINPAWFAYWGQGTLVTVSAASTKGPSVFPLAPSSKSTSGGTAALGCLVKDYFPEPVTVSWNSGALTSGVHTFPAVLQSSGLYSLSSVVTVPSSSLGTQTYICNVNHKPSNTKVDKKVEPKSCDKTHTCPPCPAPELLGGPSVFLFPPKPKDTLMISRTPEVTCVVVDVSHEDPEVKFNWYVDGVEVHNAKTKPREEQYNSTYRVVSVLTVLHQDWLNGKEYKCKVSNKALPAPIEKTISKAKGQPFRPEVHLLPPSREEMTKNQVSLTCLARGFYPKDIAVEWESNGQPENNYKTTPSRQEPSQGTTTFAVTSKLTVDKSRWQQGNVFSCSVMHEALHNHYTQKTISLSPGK
chain: EPKSSDKTHTCPPCPAPELLGGPSVFLFPPKPKDTLMISRTPEVTCVVVDVSHEDPEVKFNWYVDGVEVHNAKTKPREEQYNSTYRVVSVLTVLHQDWLNGKEYKCKVSNKALPAPIEKTISKAKGQPREPQVYTLPPPSEELALNELVTLTCLVKGFYPSDIAVEWLQGSQELPREKYLTWAPVLDSDGSFFLYSILRVAAEDWKKGDTFSCSVMHEALHNHYTQKSLDRSPGK
light: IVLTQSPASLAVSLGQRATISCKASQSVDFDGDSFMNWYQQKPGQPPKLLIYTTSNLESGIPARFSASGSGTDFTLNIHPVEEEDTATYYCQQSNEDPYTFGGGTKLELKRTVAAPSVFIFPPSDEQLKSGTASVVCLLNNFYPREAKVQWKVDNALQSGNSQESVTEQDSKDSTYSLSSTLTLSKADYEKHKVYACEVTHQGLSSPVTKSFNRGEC
notes: One Fab arm only; also called one-armed anti-CD16 antibody
A word on the IC50: it is the concentration that inhibits the measured activity by half. A low value points to inhibition by little substance. For the molecule B1, in the assay with CD16a receptor (FcγIIIa) [1], the IC50 was about 0.1 nM.

B2: one-armed anti-EGFR SEED antibody with SEED CH3 domain-exchanged Fab, Variant 1 (antibody)
heavy: QVQLVQSGAEVKKPGASVKVSCKASGYTFTSHWMHWVRQAPGQGLEWIGEFNPSNGRTNYNEKFKSKATMTVDTSTNTAYMELSSLRSEDTAVYYCASRDYDYDGRYFDYWGQGTLVTVSSASTKGPEVHLLPPSREEMTKNQVSLTCLARGFYPKDIAVEWESNGQPENNYKTTPSRQEPSQGTTTFAVTSKLTVDKSRWQQGNVFSCSVMHEALHNHYTQKTISLSKSCDKTHTCPPCPAPELLGGPSVFLFPPKPKDTLMISRTPEVTCVVVDVSHEDPEVKFNWYVDGVEVHNAKTKPREEQYNSTYRVVSVLTVLHQDWLNGKEYKCKVSNKALPAPIEKTISKAKGQPFRPEVHLLPPSREEMTKNQVSLTCLARGFYPKDIAVEWESNGQPENNYKTTPSRQEPSQGTTTFAVTSKLTVDKSRWQQGNVFSCSVMHEALHNHYTQKTISLSPGK
light: DIQMTQSPSSLSASVGDRVTITCSASSSVTYMYWYQQKPGKAPKLLIYDTSNLASGVPSRFSGSGSGTDYTFTISSLQPEDIATYYCQQWSSHIFTFGQGTKVEIKRTVAEPQVYTLPPPSEELALNELVTLTCLVKGFYPSDIAVEWLQGSQELPREKYLTWAPVLDSDGSFFLYSILRVAAEDWKKGDTFSCSVMHEALHNHYTQKSLDRSGEC
chain: B1 chain
notes: hu425 Fv; one Fab arm only; also called CH3-SEED variant 1
As to B2, the binding result in assay [2] is on record as “binds”.

B3: Unengineered one-armed anti-EGFR antibody (CH1/CL hu425 Fab on SEED AG heavy chain, with huFc_GA SEED) (antibody)
heavy: QVQLVQSGAEVKKPGASVKVSCKASGYTFTSHWMHWVRQAPGQGLEWIGEFNPSNGRTNYNEKFKSKATMTVDTSTNTAYMELSSLRSEDTAVYYCASRDYDYDGRYFDYWGQGTLVTVSSASTKGPSVFPLAPSSKSTSGGTAALGCLVKDYFPEPVTVSWNSGALTSGVHTFPAVLQSSGLYSLSSVVTVPSSSLGTQTYICNVNHKPSNTKVDKKVEPKSCDKTHTCPPCPAPELLGGPSVFLFPPKPKDTLMISRTPEVTCVVVDVSHEDPEVKFNWYVDGVEVHNAKTKPREEQYNSTYRVVSVLTVLHQDWLNGKEYKCKVSNKALPAPIEKTISKAKGQPFRPEVHLLPPSREEMTKNQVSLTCLARGFYPKDIAVEWESNGQPENNYKTTPSRQEPSQGTTTFAVTSKLTVDKSRWQQGNVFSCSVMHEALHNHYTQKTISLSPGK
chain: B1 chain
light: DIQMTQSPSSLSASVGDRVTITCSASSSVTYMYWYQQKPGKAPKLLIYDTSNLASGVPSRFSGSGSGTDYTFTISSLQPEDIATYYCQQWSSHIFTFGQGTKVEIKRTVAAPSVFIFPPSDEQLKSGTASVVCLLNNFYPREAKVQWKVDNALQSGNSQESVTEQDSKDSTYSLSSTLTLSKADYEKHKVYACEVTHQGLSSPVTKSFNRGEC
notes: One Fab arm only (monovalent); also called unengineered Fab one-armed anti-EGFR; control antibody
With B3, the binding result in assay [2] was “binds”.

B4: one-armed anti-EGFR SEED antibody with SEED CH3 domain-exchanged Fab, Variant 2 (antibody)
heavy: QVQLVQSGAEVKKPGASVKVSCKASGYTFTSHWMHWVRQAPGQGLEWIGEFNPSNGRTNYNEKFKSKATMTVDTSTNTAYMELSSLRSEDTAVYYCASRDYDYDGRYFDYWGQGTLVTVSSASTKGEPQVYTLPPPSEELALNELVTLTCLVKGFYPSDIAVEWLQGSQELPREKYLTWAPVLDSDGSFFLYSILRVAAEDWKKGDTFSCSVMHEALHNHYTQKSLDRSKSCDKTHTCPPCPAPELLGGPSVFLFPPKPKDTLMISRTPEVTCVVVDVSHEDPEVKFNWYVDGVEVHNAKTKPREEQYNSTYRVVSVLTVLHQDWLNGKEYKCKVSNKALPAPIEKTISKAKGQPFRPEVHLLPPSREEMTKNQVSLTCLARGFYPKDIAVEWESNGQPENNYKTTPSRQEPSQGTTTFAVTSKLTVDKSRWQQGNVFSCSVMHEALHNHYTQKTISLSPGK
light: DIQMTQSPSSLSASVGDRVTITCSASSSVTYMYWYQQKPGKAPKLLIYDTSNLASGVPSRFSGSGSGTDYTFTISSLQPEDIATYYCQQWSSHIFTFGQGTKVEIKRTVAPEVHLLPPSREEMTKNQVSLTCLARGFYPKDIAVEWESNGQPENNYKTTPSRQEPSQGTTTFAVTSKLTVDKSRWQQGNVFSCSVMHEALHNHYTQKTISLSGEC
chain: B1 chain
notes: hu425 Fv; one Fab arm only; also called CH3-SEED variant 2
Regarding B4, the binding result in assay [2] was “binds”.

B5: one-armed domain-exchanged KiH antibody with SEED CH3 domains in the Fab, Variant 2 (antibody)
heavy: not shown
light: B4 light
chain: not shown
notes: hu425 Fv; one Fab arm only; also called one-armed KiH antibody, CH3-SEED variant 2
Take B5: the binding result in assay [3] is “binds”.

B6: Effector Negative (EN) isotype domain-exchanged bispecific antibody BsAb2 (anti-CD16× anti-EGFR CH3-KiH), BsAb2 EN (bispecific antibody, human IgG1, kappa)
heavy 1: QVQLVQSGAEVKKPGASVKVSCKASGYTFTSHWMHWVRQAPGQGLEWIGEFNPSNGRTNYNEKFKSKATMTVDTSTNTAYMELSSLRSEDTAVYYCASRDYDYDGRYFDYWGQGTLVTVSSASTKGEPQVYTLPPSRDELTKNQVSLYCLVKGFYPSDIAVEWESNGQPENNYKTTPPVLDSDGSFFLYSKLTVDKSRWQQGNVFSCSVMHEALHNHYTQKSLSLSKSCDKTHTCPPCPAPPVAGPSVFLFPPKPKDTLMISRTPEVTCVVVDVSHEDPEVQFNWYVDGVEVHNAKTKPREEQAQSTFRVVSVLTVVHQDWLNGKEYKCKVSNKGLPAPIEKTISKTKGQPFRPEVHLLPPSREEMTKNQVSLTCLARGFYPKDIAVEWESNGQPENNYKTTPSRQEPSQGTTTFAVTSKLTVDKSRWQQGNVFSCSVMHEALHNHYTQKTISLSPGK
heavy 2: not shown
light 1: DIQMTQSPSSLSASVGDRVTITCSASSSVTYMYWYQQKPGKAPKLLIYDTSNLASGVPSRFSGSGSGTDYTFTISSLQPEDIATYYCQQWSSHIFTFGQGTKVEIKRTVAEPQVYTLPPSRDELTKNQVSLTCLVKGFYPSDIAVEWESNGQPENNYKTTPPVLDSDGSFFLTSKLTVDKSRWQQGNVFSCSVMHEALHNHYTQKSLSLSGEC
light 2: not shown
notes: also called EN BsAb2; effector negative IgG2 variant of BsAb2
With B6, in the assay with CD16a receptor (FcγIIIa) [4], the “EC50 of lysis of A431 cells by redirected NK cells (LDH release)” value was 37 pM and the “lysis of A431 cells by redirected NK cells (LDH release)” value is at most 50%. Besides, in assay [5], the “EC50 of lysis of A431 cells by redirected NK cells (LDH release)” value worked out at 37 pM and the “lysis of A431 cells by redirected NK cells (LDH release)” value is at most 50%. The half-maximal inhibitory concentration (IC50) in the assay with CD16a receptor (FcγIIIa) [1] is about 3.6 nM.

B7: one-armed domain-exchanged KiH antibody with Charge pair CH3 domains in the Fab, Variant 1 (antibody)
heavy: not shown
light: B6 light 1 with D122E, L124M, K158D, T173Y, K175D
chain: not shown
notes: hu425 Fv; one Fab arm only; also called one-armed KiH antibody, Charge pair variant 1
As for B7, in assay [3], the binding result was “binds”.

B8: one-armed domain-exchanged KiH antibody with Azymetric CH3 domains in the Fab, Variant 1 (antibody)
heavy: not shown
light: B6 light 1 with T116V, D122E, L124M, T132L, K158L, T160W, T173Y
chain: not shown
notes: hu425 Fv; one Fab arm only; also called one-armed KiH antibody, CH3-Azymetric variant 1
As to B8, the binding result in assay [3] was “binds”.

B9: one-armed anti-EGFR SEED antibody with KiH2 CH3 domain-exchanged Fab, Variant 2 (antibody)
heavy: QVQLVQSGAEVKKPGASVKVSCKASGYTFTSHWMHWVRQAPGQGLEWIGEFNPSNGRTNYNEKFKSKATMTVDTSTNTAYMELSSLRSEDTAVYYCASRDYDYDGRYFDYWGQGTLVTVSSASTKGEPQVYTLPPSRDELTKNQVSLSCAVKGFYPSDIAVEWESNGQPENNYKTTPPVLDSDGSFFLVSKLTVDKSRWQQGNVFSCSVMHEALHNHYTQKSLSLSKSCDKTHTCPPCPAPELLGGPSVFLFPPKPKDTLMISRTPEVTCVVVDVSHEDPEVKFNWYVDGVEVHNAKTKPREEQYNSTYRVVSVLTVLHQDWLNGKEYKCKVSNKALPAPIEKTISKAKGQPFRPEVHLLPPSREEMTKNQVSLTCLARGFYPKDIAVEWESNGQPENNYKTTPSRQEPSQGTTTFAVTSKLTVDKSRWQQGNVFSCSVMHEALHNHYTQKTISLSPGK
light: B6 light 1 with T132W, T173Y
chain: B1 chain
notes: hu425 Fv; one Fab arm only; also called KiH2 variant 2
On to B9, for which the binding result in assay [2] is given as “binds”.

B10: one-armed domain-exchanged KiH antibody with Azymetric CH3 domains in the Fab, Variant 2 (antibody)
heavy: not shown
light: B6 light 1 with T116V, L117Y, D122E, L124M, F171A, T173V
chain: not shown
notes: hu425 Fv; one Fab arm only; also called one-armed KiH antibody, CH3-Azymetric variant 2
As to B10, the binding result in assay [3] is given as “binds”.

B11: one-armed domain-exchanged KiH antibody with Charge pair CH3 domains in the Fab, Variant 2 (antibody)
heavy: not shown
light: B6 light 1 with D122K, L124M, D165K, T173Y
chain: not shown
notes: hu425 Fv; one Fab arm only; also called one-armed KiH antibody, Charge pair variant 2
Regarding B11, the binding result in assay [3] is “binds”.

B12: one-armed domain-exchanged KiH antibody with SEED CH3 domains in the Fab, Variant 1 (antibody)
heavy: not shown
light: B2 light
chain: not shown
notes: hu425 Fv; one Fab arm only; also called one-armed KiH antibody, CH3-SEED variant 1
B12: the binding result in assay [3] is reported as “binds”.
